We go through 125 sequences from the supplement of paper PMC9112550, “Optimization of the antimicrobial peptide Bac7 by deep mutational scanning” (BMC Biology, 2022).
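Note: peptides expressed intracellularly from a pBAD plasmid library in pooled LB shake-flask culture, induced with 0.3% L-arabinose, DNA abundance read by NGS, three biological replicates, DESeq2 with apeglm shrinkage.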

This data set concerns Escherichia coli TOP10. Briefly: shrunken log2 fold change of peptide-encoding DNA abundance (4.5 h post-induction vs induction); higher = less antimicrobial activity (less host growth inhibition). To be noted: time post-induction: 4.5 h; library: site-saturation at positions 5, 18, 19, 20.
In the case of RRIRHRPPRLPRPRPRPLRAPRP, the “shrunken log2 fold change” value was 0.513.

For RRIRGRPPRLPRPRPRPFHQPRP, the “shrunken log2 fold change” value was -0.199.

For RRIRRRPPRLPRPRPRPSWFPRP, the “shrunken log2 fold change” value turned out to be 0.165.

Turning to RRIRPRPPRLPRPRPRPLFCPRP, the “shrunken log2 fold change” value is -0.0561.

Consider RRIRFRPPRLPRPRPRPGWWPRP, for which the “shrunken log2 fold change” value was -0.0573.

As to RRIRPRPPRLPRPRPRPKWGPRP, the “shrunken log2 fold change” value came to 0.0577.

For the sequence RRIRQRPPRLPRPRPRPWMWPRP, the “shrunken log2 fold change” value is -0.457.

In the case of RRIRKRPPRLPRPRPRPKLIPRP, the “shrunken log2 fold change” value is 0.0851.

On to RRIRMRPPRLPRPRPRPDPQPRP, for which the “shrunken log2 fold change” value was 0.593.

Take RRIRDRPPRLPRPRPRPHHRPRP: the “shrunken log2 fold change” value is -0.277.

With RRIRTRPPRLPRPRPRPDLMPRP, the “shrunken log2 fold change” value was -0.121.

With RRIRTRPPRLPRPRPRPFNEPRP, the “shrunken log2 fold change” value is -0.311.

RRIRHRPPRLPRPRPRPDDFPRP: the “shrunken log2 fold change” value is -0.198.

In the case of RRIRRRPPRLPRPRPRPCPEPRP, the “shrunken log2 fold change” value came to 0.0178.

Turning to RRIRWRPPRLPRPRPRPKWLPRP, the “shrunken log2 fold change” value amounted to 0.19.

Turning to RRIRGRPPRLPRPRPRPLSEPRP, the “shrunken log2 fold change” value came out at 0.52.

As to RRIRWRPPRLPRPRPRPHQSPRP, the “shrunken log2 fold change” value turned out to be 0.0383.

Turning to RRIRARPPRLPRPRPRPGLGPRP, the “shrunken log2 fold change” value turned out to be 1.16.

For RRIRFRPPRLPRPRPRPIHMPRP, the “shrunken log2 fold change” value is -0.491.

For the sequence RRIRQRPPRLPRPRPRPWSNPRP, the “shrunken log2 fold change” value is -0.00145.

In the case of RRIRMRPPRLPRPRPRPRIGPRP, the “shrunken log2 fold change” value was determined as 0.396.

For RRIRQRPPRLPRPRPRPVVEPRP, the “shrunken log2 fold change” value is 0.0249.

For the sequence RRIRCRPPRLPRPRPRPNPSPRP, the “shrunken log2 fold change” value worked out at 0.0638.

Consider RRIRKRPPRLPRPRPRPGIEPRP, for which the “shrunken log2 fold change” value came to 1.34.

As for RRIRVRPPRLPRPRPRPKDEPRP, the “shrunken log2 fold change” value is -0.205.

Take RRIRPRPPRLPRPRPRPGWLPRP: the “shrunken log2 fold change” value stood at 0.468.

Turning to RRIRHRPPRLPRPRPRPHPHPRP, the “shrunken log2 fold change” value is -0.19.

RRIRVRPPRLPRPRPRPNVKPRP: the “shrunken log2 fold change” value was -0.159.

For the sequence RRIRGRPPRLPRPRPRPRCLPRP, the “shrunken log2 fold change” value is 0.706.

Take RRIRVRPPRLPRPRPRPSWVPRP: the “shrunken log2 fold change” value is -0.32.

With RRIRWRPPRLPRPRPRPLCKPRP, the “shrunken log2 fold change” value came to 0.116.

Regarding RRIRWRPPRLPRPRPRPLWTPRP, the “shrunken log2 fold change” value is 0.0621.

In the case of RRIRPRPPRLPRPRPRPSIMPRP, the “shrunken log2 fold change” value was -0.552.

As for RRIRPRPPRLPRPRPRPFRKPRP, the “shrunken log2 fold change” value was -0.0819.

As for RRIRLRPPRLPRPRPRPHSKPRP, the “shrunken log2 fold change” value was -0.129.

As for RRIRNRPPRLPRPRPRPNCLPRP, the “shrunken log2 fold change” value was -0.116.

On to RRIRERPPRLPRPRPRPGLIPRP, for which the “shrunken log2 fold change” value was found to be 0.101.

On to RRIRMRPPRLPRPRPRPRTTPRP, for which the “shrunken log2 fold change” value amounted to 0.714.

Turning to RRIRWRPPRLPRPRPRPWEKPRP, the “shrunken log2 fold change” value is 0.624.

In the case of RRIRRRPPRLPRPRPRPEEDPRP, the “shrunken log2 fold change” value is -0.0235.

As to RRIRERPPRLPRPRPRPFLEPRP, the “shrunken log2 fold change” value is -0.436.

With RRIRWRPPRLPRPRPRPRKGPRP, the “shrunken log2 fold change” value turned out to be 0.612.

As for RRIRERPPRLPRPRPRPECNPRP, the “shrunken log2 fold change” value was determined as 0.0631.

On to RRIRGRPPRLPRPRPRPRMYPRP, for which the “shrunken log2 fold change” value came out at 0.0954.

Regarding RRIRTRPPRLPRPRPRPQTDPRP, the “shrunken log2 fold change” value was -0.466.

Turning to RRIRMRPPRLPRPRPRPGVYPRP, the “shrunken log2 fold change” value was determined as 0.104.

For the sequence RRIRERPPRLPRPRPRPKGCPRP, the “shrunken log2 fold change” value was -0.0587.

With RRIRPRPPRLPRPRPRPPRLPRP, the “shrunken log2 fold change” value is 0.406.

In the case of RRIRKRPPRLPRPRPRPKRIPRP, the “shrunken log2 fold change” value is 0.0395.

As for RRIRNRPPRLPRPRPRPDAFPRP, the “shrunken log2 fold change” value was -0.0836.

As to RRIRARPPRLPRPRPRPEEPPRP, the “shrunken log2 fold change” value is 1.24.

As for RRIRHRPPRLPRPRPRPAGYPRP, the “shrunken log2 fold change” value was -0.0739.

In the case of RRIRMRPPRLPRPRPRPDHKPRP, the “shrunken log2 fold change” value stood at 0.0228.

As to RRIRSRPPRLPRPRPRPLNQPRP, the “shrunken log2 fold change” value amounted to 0.479.

Take RRIRRRPPRLPRPRPRPFNNPRP: the “shrunken log2 fold change” value stood at 0.221.

As for RRIRDRPPRLPRPRPRPPGLPRP, the “shrunken log2 fold change” value is -0.317.

For the sequence RRIRLRPPRLPRPRPRPNPDPRP, the “shrunken log2 fold change” value was found to be 0.0991.

On to RRIRTRPPRLPRPRPRPHCYPRP, for which the “shrunken log2 fold change” value was -0.136.

On to RRIRLRPPRLPRPRPRPYSIPRP, for which the “shrunken log2 fold change” value stood at 0.0705.

For the sequence RRIRFRPPRLPRPRPRPEWGPRP, the “shrunken log2 fold change” value was 0.186.

Take RRIRTRPPRLPRPRPRPIWQPRP: the “shrunken log2 fold change” value worked out at 0.168.

In the case of RRIRSRPPRLPRPRPRPWTHPRP, the “shrunken log2 fold change” value was -0.373.

As for RRIRDRPPRLPRPRPRPESVPRP, the “shrunken log2 fold change” value was 0.0047.

For the sequence RRIRKRPPRLPRPRPRPNATPRP, the “shrunken log2 fold change” value amounted to 1.16.

On to RRIRSRPPRLPRPRPRPRVKPRP, for which the “shrunken log2 fold change” value was -0.224.

Take RRIRHRPPRLPRPRPRPLCYPRP: the “shrunken log2 fold change” value was -0.737.

For the sequence RRIRIRPPRLPRPRPRPMSTPRP, the “shrunken log2 fold change” value is -0.211.

Consider RRIRKRPPRLPRPRPRPQCYPRP, for which the “shrunken log2 fold change” value is -0.114.

Regarding RRIRRRPPRLPRPRPRPESCPRP, the “shrunken log2 fold change” value turned out to be 0.763.

On to RRIRHRPPRLPRPRPRPQGFPRP, for which the “shrunken log2 fold change” value is -0.00136.

Turning to RRIRIRPPRLPRPRPRPYFRPRP, the “shrunken log2 fold change” value is -0.0907.

In the case of RRIRCRPPRLPRPRPRPHFKPRP, the “shrunken log2 fold change” value was -0.368.

With RRIRVRPPRLPRPRPRPCCKPRP, the “shrunken log2 fold change” value was determined as 0.905.

RRIRDRPPRLPRPRPRPPVIPRP: the “shrunken log2 fold change” value was 0.0554.

In the case of RRIRRRPPRLPRPRPRPCSPPRP, the “shrunken log2 fold change” value was -0.125.

For RRIRFRPPRLPRPRPRPPPQPRP, the “shrunken log2 fold change” value turned out to be 1.33.

Regarding RRIRGRPPRLPRPRPRPMDTPRP, the “shrunken log2 fold change” value was 1.12.

Take RRIRMRPPRLPRPRPRPAPAPRP: the “shrunken log2 fold change” value was 1.53.

For the sequence RRIRWRPPRLPRPRPRPTFHPRP, the “shrunken log2 fold change” value was 0.00721.

Turning to RRIRVRPPRLPRPRPRPEISPRP, the “shrunken log2 fold change” value is -0.122.

RRIRYRPPRLPRPRPRPNDTPRP: the “shrunken log2 fold change” value is -0.921.

In the case of RRIRCRPPRLPRPRPRPKKVPRP, the “shrunken log2 fold change” value was -0.00128.

Regarding RRIRVRPPRLPRPRPRPNACPRP, the “shrunken log2 fold change” value turned out to be 0.215.

As for RRIRPRPPRLPRPRPRPYLFPRP, the “shrunken log2 fold change” value was -0.434.

On to RRIRPRPPRLPRPRPRPGACPRP, for which the “shrunken log2 fold change” value worked out at 0.35.

As for RRIRLRPPRLPRPRPRPRMAPRP, the “shrunken log2 fold change” value came to 0.39.

As for RRIRARPPRLPRPRPRPDHFPRP, the “shrunken log2 fold change” value is -0.148.

Turning to RRIRFRPPRLPRPRPRPVGMPRP, the “shrunken log2 fold change” value is 0.348.

With RRIRPRPPRLPRPRPRPCHPPRP, the “shrunken log2 fold change” value was -0.154.

On to RRIRNRPPRLPRPRPRPDWLPRP, for which the “shrunken log2 fold change” value was found to be 0.156.

Consider RRIRGRPPRLPRPRPRPLVVPRP, for which the “shrunken log2 fold change” value was found to be 0.39.

Turning to RRIRRRPPRLPRPRPRPRPWPRP, the “shrunken log2 fold change” value was determined as 0.737.

For RRIRERPPRLPRPRPRPYPVPRP, the “shrunken log2 fold change” value was -0.224.

Take RRIRLRPPRLPRPRPRPPTYPRP: the “shrunken log2 fold change” value is -0.304.

On to RRIRQRPPRLPRPRPRPNEHPRP, for which the “shrunken log2 fold change” value was -0.0963.

Take RRIRWRPPRLPRPRPRPIANPRP: the “shrunken log2 fold change” value was found to be 0.00334.

For the sequence RRIRIRPPRLPRPRPRPLQGPRP, the “shrunken log2 fold change” value is -0.182.

On to RRIRYRPPRLPRPRPRPEDCPRP, for which the “shrunken log2 fold change” value was -0.029.

Take RRIRDRPPRLPRPRPRPTTYPRP: the “shrunken log2 fold change” value was -0.0974.

Take RRIRYRPPRLPRPRPRPEPHPRP: the “shrunken log2 fold change” value is -0.0423.

With RRIRGRPPRLPRPRPRPCWVPRP, the “shrunken log2 fold change” value is -0.00887.

Turning to RRIRTRPPRLPRPRPRPPYVPRP, the “shrunken log2 fold change” value was -0.212.

Turning to RRIRQRPPRLPRPRPRPTFWPRP, the “shrunken log2 fold change” value worked out at 2.04.

In the case of RRIRKRPPRLPRPRPRPDSPPRP, the “shrunken log2 fold change” value was -0.0585.

Consider RRIRCRPPRLPRPRPRPYHEPRP, for which the “shrunken log2 fold change” value was -0.329.

On to RRIRVRPPRLPRPRPRPRVKPRP, for which the “shrunken log2 fold change” value was -0.221.

Consider RRIRRRPPRLPRPRPRPNRVPRP, for which the “shrunken log2 fold change” value was -0.0133.

On to RRIRCRPPRLPRPRPRPNEQPRP, for which the “shrunken log2 fold change” value worked out at 0.256.

On to RRIRFRPPRLPRPRPRPDMYPRP, for which the “shrunken log2 fold change” value was -0.00804.

With RRIRTRPPRLPRPRPRPHNPPRP, the “shrunken log2 fold change” value was -0.385.

As for RRIRMRPPRLPRPRPRPTMAPRP, the “shrunken log2 fold change” value came to 1.03.

On to RRIRQRPPRLPRPRPRPKCSPRP, for which the “shrunken log2 fold change” value was -0.0276.

With RRIRERPPRLPRPRPRPKDCPRP, the “shrunken log2 fold change” value was determined as 0.033.

Consider RRIRGRPPRLPRPRPRPHDNPRP, for which the “shrunken log2 fold change” value stood at 0.174.

In the case of RRIRVRPPRLPRPRPRPLLRPRP, the “shrunken log2 fold change” value was 0.0947.

As to RRIRKRPPRLPRPRPRPPPPPRP, the “shrunken log2 fold change” value stood at 1.23.

Consider RRIRMRPPRLPRPRPRPEWKPRP, for which the “shrunken log2 fold change” value was determined as 0.0511.

Turning to RRIRERPPRLPRPRPRPYTKPRP, the “shrunken log2 fold change” value is -0.277.

In the case of RRIRQRPPRLPRPRPRPIWFPRP, the “shrunken log2 fold change” value is -0.000433.

Turning to RRIRQRPPRLPRPRPRPYWHPRP, the “shrunken log2 fold change” value was -0.317.

With RRIRWRPPRLPRPRPRPYIFPRP, the “shrunken log2 fold change” value is -0.242.

RRIRVRPPRLPRPRPRPRNRPRP: the “shrunken log2 fold change” value was -0.338.

As for RRIRKRPPRLPRPRPRPCHSPRP, the “shrunken log2 fold change” value was -0.0177.

For RRIRDRPPRLPRPRPRPIWHPRP, the “shrunken log2 fold change” value came to 0.144.

As to RRIRMRPPRLPRPRPRPFLQPRP, the “shrunken log2 fold change” value was -0.0339.
